For 19 substances, cAMP production in MC3T3-E1 cells, relative activity to hPTH(1-34) (relative activity to hPTH(1-34)) results are on record in patent US5434246A, “Parathyroid hormone derivatives” (Takeda Chemical Industries, Ltd., priority 1992, dated 1995).

Where “and” joins values, the source holds several entries; their conditions need not be identical. Equal entries are not always repeated.

The target in the test is PTH receptor (mouse) (UniProt P41593).
As for “[Thr^27 ]hPTH(1-34) (from UniProt P01270) (peptide)”, the cAMP production in MC3T3-E1 cells, relative activity to hPTH(1-34) (relative activity to hPTH(1-34)) is 0.96.
The figure for “[Glu^16 ]hPTH(1-34) (from UniProt P01270) (peptide)” is 1.55.
In the case of “[Lys^16,Asp^17 ]hPTH(1-34) (from UniProt P01270) (peptide)” it was 1.24; in that of “[Thr^16 ]hPTH(1-34) (from UniProt P01270) (peptide)”, 1.74; in that of “[Lys^15,16,His^27 ]hPTH(1-34) (from UniProt P01270) (peptide)”, 1.49.
As to “[Lys^15,16,17,His^27 ]hPTH(1-34) (from UniProt P01270) (peptide)”, the cAMP production in MC3T3-E1 cells, relative activity to hPTH(1-34) (relative activity to hPTH(1-34)) is 7.47.
“[D-Ala^3 ]hPTH(1-34) (from UniProt P01270) (peptide)”: the cAMP production in MC3T3-E1 cells, relative activity to hPTH(1-34) (relative activity to hPTH(1-34)) was found to be 2.17.
In turn, “[Arg^16,Gln^27 ]hPTH(1-34) (from UniProt P01270) (peptide)” came in with a cAMP production in MC3T3-E1 cells, relative activity to hPTH(1-34) (relative activity to hPTH(1-34)) of 2.16.
The figure for “[Lys^15,16,17 ]hPTH(1-34) (from UniProt P01270) (peptide)” is 7.62; for “[Gln^25,26,27 ]hPTH(1-34) (from UniProt P01270) (peptide)” it is 0.41; for “[Hci^16,Gln^27 ]hPTH(1-34) (from UniProt P01270) (peptide)” it is 1.54.
In the case of “[Lys^16 ]hPTH(1-34) (from UniProt P01270) (peptide)” it was 5.48 and 3.37.
The figure for “[Lys^16,17 ]hPTH(1-34) (from UniProt P01270) (peptide)” is 8.85; for “[Orn^16,Gln^27 ]hPTH(1-34) (from UniProt P01270) (peptide)” it is 1.82; for “[Arg^26,27 ]hPTH(1-34) (from UniProt P01270) (peptide)” it is 0.98.
On to “[Gln^26,27 ]hPTH(1-34) (from UniProt P01270) (peptide)”, for which the cAMP production in MC3T3-E1 cells, relative activity to hPTH(1-34) (relative activity to hPTH(1-34)) came out at 1.19.
For the substance “[Gln^16 ]hPTH(1-34) (from UniProt P01270) (peptide)”, the cAMP production in MC3T3-E1 cells, relative activity to hPTH(1-34) (relative activity to hPTH(1-34)) was 1.73.
With “[D-Lys^16 ]hPTH(1-34) (from UniProt P01270) (peptide)”, the cAMP production in MC3T3-E1 cells, relative activity to hPTH(1-34) (relative activity to hPTH(1-34)) turned out to be 0.86.
“[Lys^14,15,16,17 ]hPTH(1-34) (from UniProt P01270) (peptide)” registered a cAMP production in MC3T3-E1 cells, relative activity to hPTH(1-34) (relative activity to hPTH(1-34)) of 6.39.
